19 sequences from a protein production outcome set (Wang et al. 2014) can be followed below.

This data set can be described thus: label from the status in PepcDB records.
As to “AIREFNTKEKVFNEFTAVFDVLNHLPAFAKLHLANSMSVRYANTLGISQRNAEVFANRGTSGIDGVISTAYGYALKTSQLVTIITGDLAFFYDRNAFWNNYKPSNLRVVLLNNHGGGIFRMIDGPSALPELDELFETKQTLSARYLATEHGLEYTLCKNLNGLNQALESFFQPSMFGKILEIETDSVKN”, the protein production entry is on record as “failed”.

On to “AKSEMAFAGKGEISPRAITMWDFSWLERRWPGAGYEDWDQVLDELSERGYNAIRIDAYPHLIAENPMKKWLLKEVWNQQDWGSPDMNEVQVQPNLNLFLSKCKERDIKVGLSSWYRLDVDEVCLKLDTPEKLADCWLTILRSIEEDGLLDTILYVDLCNEWPGDSWAPFFAKTYPNVGWGNWYKEESLRWMKTSLEKMRQVYPDMPFLYSFDHGDVKKYEEVDCSFLDLYEHHIWMAQQNGGEFYKLVGYGYNRFLPDDYKNVVKNAERVYRERPGYWQKLLTDKIELMASVARKNRRPLVTTECWGLVDYKDWPLLKWDWVKDLCELGTITAARTGMWVGVATSNFCGPQFAGMWRDVEWHKRLTSIIRSSPLDESLTKNNEVAAKLLKRL”, for which the protein production result is recorded as “not failed”.

For “ALRERSEGLVLIGRRHLRSNNSWLHNVPALTGGTNRCTLHIHPEDAERLGLTDGAPVRVRGAGGAVTAPVEVTDGIRRGVVSLPHGWGHDRPGTRMSHAALDPGVNVNQLLDGSLLDPLSGNAVLNGVPVELTRT”, the protein production result is reported as “failed”.

With “AMPIAKAIEEKWGVPAEVVIAQAALESGWGKHVKGNAYFGIKGKGSQGSINFGTHEVINGKKISINDNFASYGGFGDAANGYGEFLNKNKRYREAFKHKDNPVEFAKAIARAGYATDPDYANKLTKIIQSNKFS”, the protein production entry was “not failed”.

With “ANVKLLLPYILKWEGGFVHDPADAGGATNKGVTIATWKRVGYDKDGDGDIDVEDLKLLTDDDVLNRVLKPFYWDRWKADLIESQKVANILVDWVWGSGKYGIVIPQRILGVQADGIVGNKTLQAVNSADPDELFESIFDARREFLEDITARSIKKYEDSIGRKATERELLRHTNKRFLRGWLNRLEDIRKL”, the protein production result is “not failed”.

Regarding “AQAEVRIDGPIEYGVFESRYQDFQPGERVLTRSEQNIQQTTEVPAKLGTKFGMRYQLSGKQEGDTPLTLLYLTPGVVTPDGQRHDKFEVVQKLVPGAPTDVMAYEFTEPHEVVKGEWRLMVFQGDRLLAEKSFDVR”, the protein production result was “not failed”.

As for “AQNQDCAFFFPNQEGEQITRNCYTADGKLTNILVYRVDQAYEYPSGMEVVANYTFADAAGKTLNSGQMVARCSDGNFSMSMGDVATFPTALNMMNADVYMMGDLMNYPDAFSNPMNPGDDDEFDDGTLRLYQKGNKNNRAEISVFDREFVTTETVNTPAGAFYCTKVKYEMNIWTPKETIKGYGYEWYAPNIGIVRSEQYNNKKELQSYSVLERIKK”, the protein production result was “not failed”.

Take “ARRASAGELDAAVMHELAPLKMERAVFQTRITEGEPGPEGRDAVAFEVATNPGAPAGPLNRIASGGELSRFLLALKVCLRGDDGGKTMIFDEIDRGVGGATADAVGRRLEALAGAGQVLVVTHSPQVAARGVHHWRV”: the protein production entry is given as “failed”.

On to “ARTYRGVELIPVENIYYFLADQKYVTVRHKNGSVLIDETLKELELEFQNRFIRIHRNALVSVDYLDGLEVISSGQYQVRCREVNERLAVSRRHLPYLRDRMQKM”, for which the protein production entry is recorded as “failed”.

As to “ASETQQWKTLEDTRSALMGVYGLTRAALADNNTHWICGDLRKGDFTVYKRSDLQAVSDNELNKPYDLLKKVSNWRRFYAVINAASVFMEKAPRTVELDRSYSEQNLKYDIAQVRALRAFAYFYMVRIWGDVPLVTYSYDNGTFPSMPRTDAQTVLSYAKAELLTAIEDLPYQYGTQTNLYYGSYGAQWQGKLFNKLSAYSVLAHICAWQGNYAEAETYSAFIIDHASEINAKYTSIADLTSETGLFYSNASVKGSRILGFNFAHNDNEATQSGHLEQLTLAYPLVQKSYPEIYISKDSLFSIFTNFDDLRFGIIDTIKYSSYYVQNLNEETPVFSKIKIIQDGSAKDNDFGVFGSSIVFTRLEDITLLRAEALCALNRSTEAVSYLNMIRTNRGLREVSFKKDFGNNRESLIAEIFEERRRELMGEGWRWYDLVRRQKLMKDNEAFLRLISSGGIYWPVSEDIITANSQIEQNEFWK”, the protein production result was “not failed”.

With “ASHLQFVQPKKAPPLSVSLIQGNIPQDLKWLTEYQFKTLMIYANLTRSEWGRDLIVWPESSIPMFQTDIQPFLDAMNQQAKNRGSAWVTGIPYWDVTGSREVGTPLYYNSIMASGDNSQGLYKKQRLVPFGEYIPLSGLLSWVLPALQNDPSMSGFSQGSNNQKPLMIKGHRLAAAICYEVAYPNLTRRNAENSDFLVTVSNDAWFTGTAGPMQHLQMVQMRAKENGRWFIRATNTGVTAFIDSQGHIVKQAPIDKEAVLRGDLPAMQGETLYTRLSDWPILLFSVLLLILGWIYRPRQVDVSFKSRR”, the protein production result is on record as “failed”.

Turning to “ASNTNLIVNYLPQDMTDRELYALFRAIGPINTCRIMRDYKTGYSYGYAFVDFTSEMDSQRAIKVLNGITVRNKRLKVSYARPGGESIKDTNLYVTNLPRTITDDQLDTIFGKYGSIVQKNILRDKLTGRPRGVAFVRYNKREEAQEAISALNNVIPEGGSQPLSVRLA”, the protein production entry is recorded as “not failed”.

Regarding “ASRPHQWQTDEEGVRTGKCSFPVKYLGHVEVDESRGMHICEDAVKRLKATGKKAVKAVLWVSADGLRVVDEKTKDLIVDQTIEKVSFCAPDRNFDRAFSYICRDGTTRRWICHCFMAVKDTGERLSHAVGCAFAACLERKQKR”, the protein production entry was “not failed”.

In the case of “ATAPTPASSETLSGNPALPPPVPGERHDIDSFGGRLTYWSAAPAEPTSEPPLLLIHSVNAAGSAYEVRPIFEHYARSRPVYAIELPGFGHSSRAKRQYTIRMMTDAVHSVVAEIQKVHADKRIDALALSLGSEFLARAASETPQAFRSLALVAPTGFDKKNQRWTAGSRAIPWLHSFFENPVWSESIFKLLTMKPVIGWFLKKAFGSPSIDQGMLDYDYLTTHQPGAQHAPYYFVSGYLFSQDILRIYQDLPMPVWFSHGVRGDFVDYTLKTTVEGRPNWTVTVFQTGAMPHFEVPGEFMRAYDEFLGRVTKA”, the protein production entry is reported as “failed”.

For the sequence “ATDSATAAPAAAATTQVQKEAADVLQVAVQGANAMRDIQFARLALFHGQPDSAKKLTDDAAALLAADDASWAKFVKTDAKAKMIADRYVIINASIALSEDYVATPEKESAIQSANEKLAKGDQKGAIDTLRLAGIGVIENQYLMPLNQTRKAVAQSQELLKAGKYYEANLVLKGAEEGIVVDSEMLVAGN”, the protein production entry is recorded as “not failed”.

Take “ATTMEQETCAHSLTFEECPKCSALQYRNGFYLLKYDEEWYPEELLTDGEDDVFDPELDMEVVFELQGNSTSSDKNNSSSEGNEGVIINNFYSNQYQNSIDLSANAAGSDPPRTYGQFSNLLSGAVNAFSNMLPLLADQNTEEMENLSDRVSQDTAGNTVTNTQSTVGRLVGYGTVHDGEHPASCADTASEKILAVERYYTFKVNDWTSTQKPFEYIRIPLPHVLSGEDGGVFGAALRRHYLVKTGWRVQVQCNASQFHAGSLLVFMAPEYPTLDAFAMDNRWSKDNLPNGTRTQTNKKGPFAMDHQNFWQWTLYPHQFLNLRTNTTVDLEVPYVNIAPTSSWTQHASWTLVIAVVAPLTYSTGASTSLDITASIQPVRPVFNGLRHETLSRQ”: the protein production entry is on record as “not failed”.

“AVDLNKENRDPKYVESIVNRSQKIVDKLGLTDAKVAEDVCNVIANRYFELNDIYEIRDAKVKAVKESGLTGDAKNEALKAAENEKDAALYRSHFAFPASLSLFLNEEQIEAVKDGMTYGVVKVTYEATLDMIPSLKEEEKVQIYAWLVEAREFAMDAENSNKKHAAFGKYKGRINNYLAKRGYNLTKEREEWAKRVKARGGTL”: the protein production entry was “not failed”.

“AWAGLQTKHLKVGDIEWVYSESGNSSKPTIILIHGLAGSRDNWNRVAYNLTPYYHVIIPDLPAHGDTKIPNDFDLSIPNLTEKLRRFAEAGHFEKNVHIAGHSMGGAIALLYTAQYPLETKSLLLVDSAGVFKTANTPYLKDPNLLNNLVVKKTGDFDKLFKLATASPPFIPVELKTEQEKLMIAQSKNTQKMVDQLVAMSKIYTPDTFAIATKSIDVPTYIIWGDQDKIINVEAAQELKSLLKNAETPYILKGVGHMPILEADQLVSQQYLIFLNK”: the protein production result is “failed”.

With “AWGLAATGKEFLWVMRPDSVAGEEAVIPKEFLAETADRRMLTSWCPQEKVLSHPAVGGFLTHCGWNSTLESLSCGVPMVGIEIGGDVKRGEVEAVVRELMDGEKGKKMREKAVEWRRLAEKATKLPCGSSVINFETIVNKVLLGKIPNT”, the protein production result is “failed”.
